Test results from publication PMC3799435, “Dissecting the interactions of SERRATE with RNA and DICER-LIKE 1 in Arabidopsis microRNA precursor processing” (Nucleic Acids Research, 2013).

Tests used:
Settings in all cases: both partners purified
[1] = target: T1, DICER-LIKE 1 (DCL1), untagged recombinant (Arabidopsis thaliana, UniProt Q9SP32 1-1909); experiment: SPR; Biacore T100; about 1750 RU of DCL1 immobilised via amine groups on a CM5 chip, no RNA; SE and its mutants injected for 70 s at 20 nM; 20 mM Tris-HCl (pH 7.0), 50 mM NaCl, 2 mM β-ME, 0.005% surfactant P20
T1 construct: DICER-LIKE 1 (DCL1) of Arabidopsis thaliana, 214 kDa; cDNA amplified with primers from the start codon to the stop codon; one silent mutation introduced; no extra residues at the N-terminus after SUMOstar protease; also called native DCL1; source: Sf9 insect cells (baculovirus), purified (Ni-NTA, StrepTrap, SUMOstar protease, Ni-NTA flow-through, Superdex 200); not shown: His6, N-terminal, …

[2] = target: T1, DICER-LIKE 1 (DCL1), untagged …; experiment: SPR; Biacore T100; 1750 RU of DCL1 immobilised via amine groups on a CM5 chip; SE injected for 70 s at 20 nM; 20 mM Tris-HCl (pH 7.0), 2 mM β-ME, 0.005% surfactant P20, 50 mM or 150 mM NaCl
[3] = target: T1, DICER-LIKE 1 (DCL1), untagged …; experiment: SPR; Biacore T100; about 1200 RU of DCL1 (injected at 16 nM) bound beforehand to 60 RU of biotin-labelled forked RNA on an SA chip; SE and its mutants then injected for 70 s at 20 nM; 20 mM Tris-HCl (pH 7.0), 50 mM NaCl, 2 mM β-ME, 0.005% surfactant P20; RU of mutants normalised to the RU of DCL1 bound

T1 sequence (Q9SP32 whole entry): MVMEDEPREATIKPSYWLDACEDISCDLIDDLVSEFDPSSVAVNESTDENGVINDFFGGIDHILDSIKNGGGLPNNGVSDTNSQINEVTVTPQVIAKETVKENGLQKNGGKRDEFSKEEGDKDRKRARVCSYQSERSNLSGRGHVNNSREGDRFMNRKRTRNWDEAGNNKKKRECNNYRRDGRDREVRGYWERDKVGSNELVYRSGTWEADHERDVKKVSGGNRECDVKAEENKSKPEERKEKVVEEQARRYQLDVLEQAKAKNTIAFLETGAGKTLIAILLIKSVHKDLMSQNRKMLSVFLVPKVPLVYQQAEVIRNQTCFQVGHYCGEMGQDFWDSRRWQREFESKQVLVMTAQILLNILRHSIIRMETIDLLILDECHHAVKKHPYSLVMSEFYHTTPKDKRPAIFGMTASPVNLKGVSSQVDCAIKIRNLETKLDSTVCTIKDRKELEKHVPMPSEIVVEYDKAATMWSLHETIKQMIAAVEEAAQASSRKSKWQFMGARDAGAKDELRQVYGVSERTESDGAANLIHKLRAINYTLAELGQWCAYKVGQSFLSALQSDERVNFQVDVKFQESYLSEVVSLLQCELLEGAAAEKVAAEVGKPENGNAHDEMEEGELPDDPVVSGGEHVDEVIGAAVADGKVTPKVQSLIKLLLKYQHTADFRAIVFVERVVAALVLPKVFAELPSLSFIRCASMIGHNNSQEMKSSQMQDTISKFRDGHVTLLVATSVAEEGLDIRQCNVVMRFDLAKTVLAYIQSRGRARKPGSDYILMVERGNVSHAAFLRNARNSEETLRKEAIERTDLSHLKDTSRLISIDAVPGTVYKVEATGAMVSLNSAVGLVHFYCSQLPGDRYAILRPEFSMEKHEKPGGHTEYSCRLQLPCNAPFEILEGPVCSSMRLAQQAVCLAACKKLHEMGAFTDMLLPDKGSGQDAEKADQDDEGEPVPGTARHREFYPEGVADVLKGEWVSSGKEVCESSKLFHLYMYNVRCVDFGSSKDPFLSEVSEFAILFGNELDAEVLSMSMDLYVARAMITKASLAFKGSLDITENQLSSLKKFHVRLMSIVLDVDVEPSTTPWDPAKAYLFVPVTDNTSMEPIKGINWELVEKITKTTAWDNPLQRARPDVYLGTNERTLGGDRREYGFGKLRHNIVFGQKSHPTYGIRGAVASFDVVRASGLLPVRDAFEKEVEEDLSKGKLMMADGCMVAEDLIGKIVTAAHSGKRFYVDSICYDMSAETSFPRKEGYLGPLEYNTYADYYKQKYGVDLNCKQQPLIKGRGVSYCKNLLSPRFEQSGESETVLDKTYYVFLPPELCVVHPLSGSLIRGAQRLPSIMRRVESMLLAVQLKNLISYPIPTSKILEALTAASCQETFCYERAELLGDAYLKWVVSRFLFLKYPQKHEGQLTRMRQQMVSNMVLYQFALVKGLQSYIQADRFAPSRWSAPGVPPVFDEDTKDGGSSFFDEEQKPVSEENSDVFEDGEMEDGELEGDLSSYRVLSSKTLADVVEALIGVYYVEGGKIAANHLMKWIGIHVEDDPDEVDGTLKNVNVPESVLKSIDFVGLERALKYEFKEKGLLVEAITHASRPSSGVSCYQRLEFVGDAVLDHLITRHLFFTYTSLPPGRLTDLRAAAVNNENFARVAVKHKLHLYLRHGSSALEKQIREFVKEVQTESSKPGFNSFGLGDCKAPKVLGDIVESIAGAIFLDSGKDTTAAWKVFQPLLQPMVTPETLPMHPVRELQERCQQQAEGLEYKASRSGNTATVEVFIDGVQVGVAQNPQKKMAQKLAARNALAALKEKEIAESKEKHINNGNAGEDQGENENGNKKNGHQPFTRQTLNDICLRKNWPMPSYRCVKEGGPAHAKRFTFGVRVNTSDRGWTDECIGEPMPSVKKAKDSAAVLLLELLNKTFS

B1: SE1–701, C-terminally truncated hexahistidine-tagged SERRATE (domain or fragment, Arabidopsis thaliana, UniProt Q9ZVD0 1-701, looked up)
chain: MADVNLPPSDSVDNRLPEKSTSSSPPPPPPSSSLPQQEQEQDQQQLPLRRERDSRERRDERDIERPPPNRRERDRSPLPPPRRDYKRRPSLSPPPPYRDRRHSPPQRRSPPQKRYRRDDNGYDGRRGSPRGGYGPPDRRFGYDHGGGYDREMGGRPGYGDERPHGRFMGRYQDWEGGRGGYGDASNSGNPQRDGLMSYKQFIQELEDDILPSEAERRYQEYKSEYITTQKRAFFNTHKEEDWLKNKYHPTNLLSVIERRNDLAQKVAKDFLLDLQSGTLDLGPAVTALNKSGRTSEPNSEDEAAGVGKRKRHGMGGAKENELLSAAPKAPSFTSDPKRILTDVEQTQALVRKLDSEKKIEENVLQGSETEKSGREKLHSGSTGPVVIIRGLTSVKGLEGVELLDTLVTYLWRVHGLDYYGKVETNEAKGLRHVRAEGKVSDAKGDENESKFDSHWQERLKGQDPLEVMAAKEKIDAAATEALDPHVRKIRDEKYGWKYGCGAKGCTKLFHAAEFVYKHLKLKHTELVTELTTKVREELYFQNYMNDPNAPGGQPATQQSGPRDRPIRRKPSMENRLRDDRGGRRERDGRANGNDRNDRSEDQQRGDNDGGNPGEVGYDAFGGQGGVHVPPFLSDINPPPMLMPVPGAGPLGPFVPAPPEVAMQMFRDPSGPNPPFEGSGRGGPAPFLLSPAFRQDPRRLRS
notes: No cleavage step of the tag is described in the purification; also called C-terminal domain deletion; source: Sf9 insect cells (baculovirus), purified (TALON, Superdex 200)
[1]
  binding result: binds

B2: SERRATE (SE), untagged recombinant (natural protein, Arabidopsis thaliana, UniProt Q9ZVD0 1-720, looked up)
chain: MADVNLPPSDSVDNRLPEKSTSSSPPPPPPSSSLPQQEQEQDQQQLPLRRERDSRERRDERDIERPPPNRRERDRSPLPPPRRDYKRRPSLSPPPPYRDRRHSPPQRRSPPQKRYRRDDNGYDGRRGSPRGGYGPPDRRFGYDHGGGYDREMGGRPGYGDERPHGRFMGRYQDWEGGRGGYGDASNSGNPQRDGLMSYKQFIQELEDDILPSEAERRYQEYKSEYITTQKRAFFNTHKEEDWLKNKYHPTNLLSVIERRNDLAQKVAKDFLLDLQSGTLDLGPAVTALNKSGRTSEPNSEDEAAGVGKRKRHGMGGAKENELLSAAPKAPSFTSDPKRILTDVEQTQALVRKLDSEKKIEENVLQGSETEKSGREKLHSGSTGPVVIIRGLTSVKGLEGVELLDTLVTYLWRVHGLDYYGKVETNEAKGLRHVRAEGKVSDAKGDENESKFDSHWQERLKGQDPLEVMAAKEKIDAAATEALDPHVRKIRDEKYGWKYGCGAKGCTKLFHAAEFVYKHLKLKHTELVTELTTKVREELYFQNYMNDPNAPGGQPATQQSGPRDRPIRRKPSMENRLRDDRGGRRERDGRANGNDRNDRSEDQQRGDNDGGNPGEVGYDAFGGQGGVHVPPFLSDINPPPMLMPVPGAGPLGPFVPAPPEVAMQMFRDPSGPNPPFEGSGRGGPAPFLLSPAFRQDPRRLRSYQDLDAPEEEVTVIDYRSL
notes: SERRATE (SE) of Arabidopsis thaliana, 81 kDa, 720 amino acids; cDNA amplified with primers from the start codon to the stop codon; also called native SE; untagged SE; source: Sf9 insect cells (baculovirus), purified (Ni-NTA, StrepTrap, SUMOstar protease, Ni-NTA flow-through, Superdex 200); not shown: His6, N-terminal, cleaved; Strep-tag II, N-terminal, cleaved; SUMOstar, N-terminal, cleaved
[2]
  fold reduction in RUmax from 50 to 150 mM NaCl: 5 fold

B3: N-terminally hexahistidine-tagged wild-type SERRATE (SE) (natural protein, Arabidopsis thaliana, UniProt Q9ZVD0 1-720, looked up)
chain: MADVNLPPSDSVDNRLPEKSTSSSPPPPPPSSSLPQQEQEQDQQQLPLRRERDSRERRDERDIERPPPNRRERDRSPLPPPRRDYKRRPSLSPPPPYRDRRHSPPQRRSPPQKRYRRDDNGYDGRRGSPRGGYGPPDRRFGYDHGGGYDREMGGRPGYGDERPHGRFMGRYQDWEGGRGGYGDASNSGNPQRDGLMSYKQFIQELEDDILPSEAERRYQEYKSEYITTQKRAFFNTHKEEDWLKNKYHPTNLLSVIERRNDLAQKVAKDFLLDLQSGTLDLGPAVTALNKSGRTSEPNSEDEAAGVGKRKRHGMGGAKENELLSAAPKAPSFTSDPKRILTDVEQTQALVRKLDSEKKIEENVLQGSETEKSGREKLHSGSTGPVVIIRGLTSVKGLEGVELLDTLVTYLWRVHGLDYYGKVETNEAKGLRHVRAEGKVSDAKGDENESKFDSHWQERLKGQDPLEVMAAKEKIDAAATEALDPHVRKIRDEKYGWKYGCGAKGCTKLFHAAEFVYKHLKLKHTELVTELTTKVREELYFQNYMNDPNAPGGQPATQQSGPRDRPIRRKPSMENRLRDDRGGRRERDGRANGNDRNDRSEDQQRGDNDGGNPGEVGYDAFGGQGGVHVPPFLSDINPPPMLMPVPGAGPLGPFVPAPPEVAMQMFRDPSGPNPPFEGSGRGGPAPFLLSPAFRQDPRRLRSYQDLDAPEEEVTVIDYRSL
notes: SERRATE (SE) of Arabidopsis thaliana, 720 amino acids; tagged protein 86 kDa; primers from the start codon to the stop codon; myc tag and Strep tag II were inserted in the NotI site of the modified pENTR-D/TOPO vector, then moved to pDEST10; also called His-tagged SE; hexahistidine-tagged SE; source: Sf9 insect cells (baculovirus), purified (TALON, Superdex 200); not shown: His6, N-terminal, kept
[1]
  stoichiometry N: 0.7 SE:DCL1 molar ratio
[3]
  stoichiometry N: 2.4 SE:DCL1 molar ratio
